In doi:10.1101/2022.05.31.494220:

Target: peptide encoding HTP-3 closure motif #4 (C. elegans)
Assay: fluorescence polarisation

Kd | Binder
220 nM | HIM-3 (wildtype) (natural protein) ATKEQIVEHRESEIPIASQWKATFPVDLEIEKNSEMFALRYIKCASAFILDRRGILDEKCFKTRTIDKLLVTAFQSSVPAAKRVSSTFDGLRDAIQQGYLREFAIVFYKKPNEEDINEVFAFRFAYGDEGEIFVSLNNGIDTNESSQELLQAKFVDTDNTKQMFASTIKKLHRCIKKMEPLPQGSDASFRVSYTEKAPKDYTPEGYLLSPMFYTLNQDIRKASIGIVCGGHHKIQMLAASQYLKQDFDLDKTTTLNPNMSIMANQSKRKGRISRDSPYGLSQGITKKNKD
690 nM | HIM-3^R93Y (natural protein) ATKEQIVEHRESEIPIASQWKATFPVDLEIEKNSEMFALRYIKCASAFILDRRGILDEKCFKTRTIDKLLVTAFQSSVPAAKRVSSTFDGLYDAIQQGYLREFAIVFYKKPNEEDINEVFAFRFAYGDEGEIFVSLNNGIDTNESSQELLQAKFVDTDNTKQMFASTIKKLHRCIKKMEPLPQGSDASFRVSYTEKAPKDYTPEGYLLSPMFYTLNQDIRKASIGIVCGGHHKIQMLAASQYLKQDFDLDKTTTLNPNMSIMANQSKRKGRISRDSPYGLSQGITKKNKD
